The text below walks through data of PMC5939101 (Proceedings of the National Academy of Sciences of the …, 2018).

The target of the assay is T1, His-Ivy1 (recombinant wild-type Ivy1) (S. cerevisiae, UniProt Q04934 1-453).
T1 sequence: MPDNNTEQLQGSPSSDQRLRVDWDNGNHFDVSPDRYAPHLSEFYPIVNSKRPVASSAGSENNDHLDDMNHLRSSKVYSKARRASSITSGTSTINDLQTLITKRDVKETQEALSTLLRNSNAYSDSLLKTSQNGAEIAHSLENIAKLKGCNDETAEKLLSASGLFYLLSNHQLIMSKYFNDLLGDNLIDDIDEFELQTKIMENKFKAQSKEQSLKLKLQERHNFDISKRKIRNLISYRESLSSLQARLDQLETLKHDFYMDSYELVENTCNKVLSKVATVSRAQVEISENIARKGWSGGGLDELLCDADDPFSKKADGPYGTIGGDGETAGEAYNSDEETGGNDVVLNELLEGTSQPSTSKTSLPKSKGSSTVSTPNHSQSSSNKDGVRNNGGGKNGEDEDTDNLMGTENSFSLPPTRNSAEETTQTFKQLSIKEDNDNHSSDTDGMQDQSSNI
Put plainly: pull-down.

B1: GST-Ypt7 (natural protein)
chain: MSSRKKNILKVIILGDSGVGKTSLMHRYVNDKYSQQYKATIGADFLTKEVTVDGDKVATMQVWDTAGQERFQSLGVAFYRGADCCVLVYDVTNASSFENIKSWRDEFLVHANVNSPETFPFVILGNKIDAEESKKIVSEKSAQELAKSLGDIPLFLTSAKNAINVDTAFEEIARSALQQNQADTEAFEDDYNDAINIRLDGENNSCSC
As to B1, the binding result is on record as “binds”.
